Biological target: T1, CAR (Coxsackie and adenoviruses receptor) (human, UniProt P78310 20-365)
T1 sequence: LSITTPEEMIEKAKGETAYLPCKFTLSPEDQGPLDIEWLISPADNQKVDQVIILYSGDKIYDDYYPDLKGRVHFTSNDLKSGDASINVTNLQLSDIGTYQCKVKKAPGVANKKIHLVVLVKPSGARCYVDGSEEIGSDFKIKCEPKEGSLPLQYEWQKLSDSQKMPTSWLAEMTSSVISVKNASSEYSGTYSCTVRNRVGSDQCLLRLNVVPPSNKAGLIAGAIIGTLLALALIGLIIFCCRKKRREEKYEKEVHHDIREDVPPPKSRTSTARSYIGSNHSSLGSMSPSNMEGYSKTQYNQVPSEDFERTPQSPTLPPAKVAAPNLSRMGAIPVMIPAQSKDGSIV
Experiment: cell-based or functional assay

B1: vBS1: Ad5 virus with short-shafted fiber from Ad5 (deletion encompassing shaft repeats 4-16) (other)
chain: MKRARPSEDTFNPVYPYDTETGPPTVPFLTPPFVSPNGFQESPPGVLSLRLSEPLVTSNGMLALKMGNGLSLDEAGNLTSQNVTTVSPPLKKTKSNLDINYNKGLYLFTASNNSKKLEVNLSTAKGLMFDATAIAINAGDGLEFGSPNAPNTNPLKTKIGHGLEFDSNKAMVPKLGTGLSFDSTGAITVGNKNNDKLTLWTTPAPSPNCRLNAEKDAKLTLVLTKCGSQILATVSVLAVKGSLAPISGTVQSAHLIIRFDENGVLLNNSFLDPEYWNFRNGDLTEGTAYTNAVGFMPNLSAYPKSHGKTAKSNIVSQVYLNGDKTKPVTLTITLNGTQETGDTTPSAYSMSFSWDWSGHNYINEIFATSSYTFSYIAQE
cell transduction of 293 cells (specific lacZ expression, moi 50 VP/cell): 10 fold

Source: patent US20030143209A1 (AVENTIS PHARMA S A, published 2003)
